From patent publication US20090131317A1, “COMPOUNDS AND PEPTIDES THAT BIND THE TRAIL RECEPTOR” (AFFYMAX, INC., priority 2007, published 2009)
One block for each molecule: values may come before it. Numbered stars: 1 amine (or outer) side, 2 acyl side, 3 side chain; on linkers, the order of the positions; unused ones are H or OH. Bridge positions count the residues as written; N and C are the ends. Peptide text beside a SMILES is read from it. I, II: the chains in the order shown. TSAT = Tris-succinimidyl aminotriacetate linker; Isophthaloyl = O=C(c1cccc(C(=O)[*:2])c1)[*:1]; X1 = O=C(CN(CC(=O)[*:2])CC(=O)[*:3])[*:1]; Diglycolyl = O=C(COCC(=O)[*:2])[*:1]; DIG = diglycolic acid linker

Columns and labels:
Jurkat cells = format: cell-based
Protocol: The apoptotic activity of test peptides is measured using a Jurkat proliferation assay.
Jurkat cells are obtained from the American Type Culture Collection (ATCC, Manassas, Va.) and are maintained in RPMI-1640 medium supplemented with 10% FBS, 100 U/mL penicillin, and 100 […] (Growth Medium). […] Cells are resuspended at a density of 1×10^6 cells/mL in Growth Medium, and 50 μl cells is added to each well of the assay plates. The plates are incubated in a 37° C., 5% CO2 incubator for 24-48 hours. Proliferation is assessed by adding 10 μL of MTT stock solution (ATCC, Manassas, Va.) to the wells. The plates are incubated in a 37° C., 5% CO2 incubator for another 2-4 hours, followed by the addition of 100 μL of 20% SDS with 0.01 N HCl. After incubation overnight in a 37° C., 5% CO2 incubator, the plates are quantified by reading the optical density at a wavelength of 595 nm (OD595) in a SpectraMax® M5 microplate reader (Molecular Devices, Sunnyvale, Calif.). The data are analyzed using GraphPad Prism® software (La Jolla, Calif.) to calculate IC50 values from a 4-parameter logistic equation.

HCT-116 cells = format: cell-based
Protocol: The apoptotic activity of test peptides is measured using an HCT-116 proliferation assay. The HCT-116 assay is used to measure the activity of TRAIL R2 agonist peptides using the colon carcinoma cell line HCT-116 (ATCC, Manassas, Va.).
In more detail, a peptide homotrimer based on the peptide monomer sequence of SEQ ID NO: 19 (See, FIG. 8B) is tested for functional activity using the HCT-116 proliferation assay. HCT-116 cells are incubated for one to two days in the presence of serially diluted peptide dimers or peptide trimers. […]
Cell viability is measured using an MTT colorimetric viability assay, a colorimetric assay that analyzes the number of viable cells by measuring the ability of mitochondrial dehydrogenase enzyme in the viable cells to cleave tetrazolium salts added to the culture medium [See, Mosmann (1983) J. Immunol. […] Using this assay, cell proliferation is assessed after 24-48 hours by adding 10 μL of MTT stock solution (ATCC, Manassas, Va.) to the wells. […] After incubation overnight in a 37° C., 5% CO2 incubator, the plates are quantified by reading the optical density at 595 nm (OD595) in a SpectraMax M5 microplate reader (Molecular Devices, Sunnyvale, Calif.). The data are analyzed using GraphPad® Prism software (La Jolla, Calif.) to calculate IC50 values from a 4-parameter logistic equation.

[1] = target: T1, Recombinant human TRAIL R2-Fc fusion protein (R&D Systems) (human, UniProt O14763 52-182, limits assumed); assay: AlphaQuest competition: displaces biotinylated TRAIL ligand from human TRAIL R2-Fc
T1 construct: Bought from R&D Systems; held on protein A-coated acceptor beads in the AlphaQuest/AlphaScreen assay; also called TRAIL R2 receptor; R2 receptor; not shown: Fc part of the bought fusion protein
Protocol: The plates are sealed with adhesive sealing film and covered with aluminum foil, centrifuged at 600 rpm for 30 seconds and incubated overnight in the dark. […] The raw data are analyzed using GraphPad Prism® software (La Jolla, Calif.) to calculate IC₅₀ values from a 4-parameter logistic equation.
The binding affinity of the antagonist peptides and peptide-based compounds of the invention are measured according to the AlphaQuest® Competitive Binding Assay, described above, in Example 1.1. The IC₅₀ values are determined for each test peptide or test compound. The compounds tested are homodimers and homotrimers of peptides comprising the amino sequence set forth in SEQ ID NOs: 33 and 34, linked by DIG or TSAT, respectively.

[2] = target: TRAIL R2 receptor on HCT-116 or Jurkat cells (UniProt O14763 56-440, limits assumed); assay: cell-based or functional assay

Molecule: CC[C@H](C)[C@@H]1NC(=O)[C@H](CCCNC(=N)N)NC(=O)[C@H](CC(N)=O)NC(=O)[C@H](CC(=O)O)NC(=O)[C@H](CC(C)C)NC(=O)[C@@H](NC(=O)[C@H](CC(=O)O)NC(=O)[C@H](Cc2c[nH]c3ccccc23)NC(C)=O)CSSC[C@@H](C(=O)N[C@H](C(=O)N[C@@H](CCCCNC(=O)c2cccc(C(=O)NCCCC[C@H](NC(=O)[C@@H](NC(=O)[C@@H]3CSSC[C@H](NC(=O)[C@H](CC(=O)O)NC(=O)[C@H](Cc4c[nH]c5ccccc45)NC(C)=O)C(=O)N[C@@H](CC(C)C)C(=O)N[C@@H](CC(=O)O)C(=O)N[C@@H](CC(N)=O)C(=O)N[C@@H](CCCNC(=N)N)C(=O)N[C@@H]([C@@H](C)CC)C(=O)NCC(=O)N[C@@H](CCCNC(=N)N)C(=O)N[C@@H](CCCNC(=N)N)C(=O)N[C@@H](CCC(N)=O)C(=O)N3)C(C)C)C(=O)N[C@@H](CC(C)C)C(N)=O)c2)C(=O)N[C@@H](CC(C)C)C(N)=O)C(C)C)NC(=O)[C@H](CCC(N)=O)NC(=O)[C@H](CCCNC(=N)N)NC(=O)[C@H](CCCNC(=N)N)NC(=O)CNC1=O [SEQ ID NO: 19 homodimer (IPA linker)] (I: Ac-WDCLDNRIGRRQCVKL-NH2 / II: Ac-WDCLDNRIGRRQCVKL-NH2; disulfide I:3-I:13, II:3-II:13; linker I:15-II:15 via Isophthaloyl)
- EC50 (Jurkat cells): 1400 to 4020 nM

Molecule: CC(=O)N[C@@H](Cc1c[nH]c2ccccc12)C(=O)N[C@@H](CC(=O)O)C(=O)N[C@H]1CSSC[C@@H](C(=O)N[C@H](C(=O)N[C@@H](CCCNC(=N)N)C(=O)N[C@@H](CC(C)C)C(=O)N[C@@H](CCC(=O)O)C(=O)N[C@@H](CCCCNC(=O)COCC(=O)NCCCC[C@H](NC(=O)[C@H](CCC(=O)O)NC(=O)[C@H](CC(C)C)NC(=O)[C@H](CCCNC(=N)N)NC(=O)[C@@H](NC(=O)[C@@H]2CSSC[C@H](NC(=O)[C@H](CC(=O)O)NC(=O)[C@H](Cc3c[nH]c4ccccc34)NC(C)=O)C(=O)N[C@@H](CC(C)C)C(=O)N[C@@H](C(C)C)C(=O)N[C@@H](CC(=O)O)C(=O)N[C@@H](CCCNC(=N)N)C(=O)N3CCC[C@H]3C(=O)NCC(=O)N[C@@H](CCCNC(=N)N)C(=O)N[C@@H](CCCNC(=N)N)C(=O)N[C@@H](CCC(N)=O)C(=O)N2)C(C)C)C(N)=O)C(N)=O)C(C)C)NC(=O)[C@H](CCC(N)=O)NC(=O)[C@H](CCCNC(=N)N)NC(=O)[C@H](CCCNC(=N)N)NC(=O)CNC(=O)[C@@H]2CCCN2C(=O)[C@H](CCCNC(=N)N)NC(=O)[C@H](CC(=O)O)NC(=O)[C@H](C(C)C)NC(=O)[C@H](CC(C)C)NC1=O [SEQ ID NO: 29 homodimer] (I: Ac-WDCLVDRPGRRQCVRLEK-NH2 / II: Ac-WDCLVDRPGRRQCVRLEK-NH2; disulfide I:3-I:13, II:3-II:13 (inferred); linker I:18-II:18 via Diglycolyl (inferred))
- EC50 (Jurkat cells): 1300 to 1660 nM

Molecule: CC(=O)N[C@@H](Cc1c[nH]c2ccccc12)C(=O)N[C@@H](CC(=O)O)C(=O)N[C@H]1CSSC[C@@H](C(=O)N[C@H](C(=O)N[C@@H](CCCNC(=N)N)C(=O)N[C@@H](CC(C)C)C(=O)N[C@@H](CCC(=O)O)C(=O)N[C@@H](CCCNC(=N)N)C(=O)N[C@@H](CCCCNC(=O)COCC(=O)NCCCC[C@H](NC(=O)[C@H](CCCNC(=N)N)NC(=O)[C@H](CCC(=O)O)NC(=O)[C@H](CC(C)C)NC(=O)[C@H](CCCNC(=N)N)NC(=O)[C@@H](NC(=O)[C@@H]2CSSC[C@H](NC(=O)[C@H](CC(=O)O)NC(=O)[C@H](Cc3c[nH]c4ccccc34)NC(C)=O)C(=O)N[C@@H](CC(C)C)C(=O)N[C@@H](C(C)C)C(=O)N[C@@H](CC(=O)O)C(=O)N[C@@H](CCCNC(=N)N)C(=O)N3CCC[C@H]3C(=O)NCC(=O)N[C@@H](CCCNC(=N)N)C(=O)N[C@@H](CCCNC(=N)N)C(=O)N[C@@H](CCC(N)=O)C(=O)N2)C(C)C)C(N)=O)C(N)=O)C(C)C)NC(=O)[C@H](CCC(N)=O)NC(=O)[C@H](CCCNC(=N)N)NC(=O)[C@H](CCCNC(=N)N)NC(=O)CNC(=O)[C@@H]2CCCN2C(=O)[C@H](CCCNC(=N)N)NC(=O)[C@H](CC(=O)O)NC(=O)[C@H](C(C)C)NC(=O)[C@H](CC(C)C)NC1=O [SEQ ID NO: 30 homodimer] (I: Ac-WDCLVDRPGRRQCVRLERK-NH2 / II: Ac-WDCLVDRPGRRQCVRLERK-NH2; disulfide I:3-I:13, II:3-II:13 (inferred); linker I:19-II:19 via Diglycolyl (inferred))
- EC50 (Jurkat cells): 611 to 1090 nM

Molecule: CC(=O)N[C@@H](Cc1c[nH]c2ccccc12)C(=O)N[C@@H](CC(=O)O)C(=O)N[C@H]1CSSC[C@@H](C(=O)N[C@H](C(=O)N[C@@H](CCCCNC(=O)COCC(=O)NCCCC[C@H](NC(=O)[C@@H](NC(=O)[C@@H]2CSSC[C@H](NC(=O)[C@H](CC(=O)O)NC(=O)[C@H](Cc3c[nH]c4ccccc34)NC(C)=O)C(=O)N[C@@H](CC(C)C)C(=O)N[C@@H](C(C)C)C(=O)N[C@@H](CC(=O)O)C(=O)N[C@@H](CCCNC(=N)N)C(=O)N3CCC[C@H]3C(=O)NCC(=O)N[C@@H](CCCNC(=N)N)C(=O)N[C@@H](CCCNC(=N)N)C(=O)N[C@@H](CCC(N)=O)C(=O)N2)C(C)C)C(=O)N[C@@H](CC(C)C)C(=O)N[C@@H](CCC(=O)O)C(=O)N[C@@H](CCCNC(=N)N)C(N)=O)C(=O)N[C@@H](CC(C)C)C(=O)N[C@@H](CCC(=O)O)C(=O)N[C@@H](CCCNC(=N)N)C(N)=O)C(C)C)NC(=O)[C@H](CCC(N)=O)NC(=O)[C@H](CCCNC(=N)N)NC(=O)[C@H](CCCNC(=N)N)NC(=O)CNC(=O)[C@@H]2CCCN2C(=O)[C@H](CCCNC(=N)N)NC(=O)[C@H](CC(=O)O)NC(=O)[C@H](C(C)C)NC(=O)[C@H](CC(C)C)NC1=O [SEQ ID NO: 31 homodimer] (I: Ac-WDCLVDRPGRRQCVKLER-NH2 / II: Ac-WDCLVDRPGRRQCVKLER-NH2; disulfide I:3-I:13, II:3-II:13 (inferred); linker I:15-II:15 via Diglycolyl (inferred))
- EC50 (Jurkat cells): > 22000 nM

Molecule: I: Ac-WDCLDNRIGRRQCVKL-NH2 / II: Ac-WDCLDNRIGRRQCVKL-NH2 / III: Ac-WDCLDNRIGRRQCVKL-NH2 (disulfide I:3-I:13, II:3-II:13, III:3-III:13 (inferred); linker I:15-II:15-III:15 via X1 (inferred)) [SEQ ID NO: 19 homotrimer]
- EC50 (HCT-116 cells): ~480 nM

B2: peptide homodimer based on the monomer amino acid sequence of SEQ ID NO: 33, DIG linker (peptide)
peptide: Ac-WDCLDNRIGK(DIG)RQCVR-NH2
modifications: disulfide 3-13 (inferred); also: homodimer joined by DIG linker at Lys10
notes: also called 33 Dimer DIG
- IC50 [1]: 0.111 nM
- EC50, Jurkat antagonist assay (inhibition of TRAIL ligand-induced apoptosis) [2]: 5440 nM

Second part, the molecule after the results:

- IC50 [1]: 0.038 nM
- EC50, Jurkat antagonist assay (inhibition of TRAIL ligand-induced apoptosis) [2]: 323 nM
B1: peptide homotrimer based on the monomer amino acid sequence of SEQ ID NO: 34, TSAT linker (peptide)
peptide: Ac-WDCLDNRIGK(TSAT)RQCVRA-NH2
modifications: disulfide 3-13 (inferred); also: homotrimer joined by TSAT linker at Lys10

- IC50 [1]: 0.06 nM
- EC50, Jurkat antagonist assay (inhibition of TRAIL ligand-induced apoptosis) [2]: 1580 nM
B3: peptide homodimer based on the monomer amino acid sequence of SEQ ID NO: 34, DIG linker (peptide)
peptide: Ac-WDCLDNRIGK(DIG)RQCVRA-NH2
modifications: disulfide 3-13 (inferred); also: homodimer joined by DIG linker at Lys10
notes: also called 34 Dimer DIG
